The source of these data is paper PMC10702427, “Effects of Dimerization on the Deacylase Activities of Human SIRT2” (Biochemistry, 2023).

B1: SIRT2cat catalytic domain (protein)
chain: ERLLDELTLEGVARYMQSERCRRVICLVGAGISTSAGIPDFRSPSTGLYDNLEKYHLPYPEAIFEISYFKKHPEPFFALAKELYPGQFKPTICHYFMRLLKDKGLLLRCYTQNIDTLERIAGLEQEDLVEAHGTFYTSHCVSASCRHEYPLSWMKEKIFSEVTPKCEDCQSLVKPDIVFFGESLPARFFSCMQSDFLKVDLLLVMGTSLQVQPFASLISKAPLSTPRLLINKEKAGQSDPFLGMIMGLGGGMDFDSKKAYRDVAWLGECDQGCLALAELLGWKKELEDLVRREHASIDAQS
B2: full-length SIRT2 (amino acids 1–389), Q8IXJ6-1 1-389 (enzyme)
chain: MAEPDPSHPLETQAGKVQEAQDSDSDSEGGAAGGEADMDFLRNLFSQTLSLGSQKERLLDELTLEGVARYMQSERCRRVICLVGAGISTSAGIPDFRSPSTGLYDNLEKYHLPYPEAIFEISYFKKHPEPFFALAKELYPGQFKPTICHYFMRLLKDKGLLLRCYTQNIDTLERIAGLEQEDLVEAHGTFYTSHCVSASCRHEYPLSWMKEKIFSEVTPKCEDCQSLVKPDIVFFGESLPARFFSCMQSDFLKVDLLLVMGTSLQVQPFASLISKAPLSTPRLLINKEKAGQSDPFLGMIMGLGGGMDFDSKKAYRDVAWLGECDQGCLALAELLGWKKELEDLVRREHASIDAQSGAGVPNPSTSASPKKSPPPAKDEARTTEREKPQ
B3: myristoyl-H4K16 peptide (13mer) (peptide)
peptide: KGLGKGGAK(Myristoyl)RHRK
notes: also called myristoyl peptide; myristoylated peptide; source: synthetic peptide (New England Peptide)
B4: SIRT2^cat(Q142A/E340A) (domain or fragment, human)
chain: SGEADMDFLRNLFSQTLSLGSQKERLLDELTLEGVARYMQSERCRRVICLVGAGISTSAGIPDFRSPSTGLYDNLEKYHLPYPEAIFEISYFKKHPEPFFALAKELYPGAFKPTICHYFMRLLKDKGLLLRCYTQNIDTLERIAGLEQEDLVEAHGTFYTSHCVSASCRHEYPLSWMKEKIFSEVTPKCEDCQSLVKPDIVFFGESLPARFFSCMQSDFLKVDLLLVMGTSLQVQPFASLISKAPLSTPRLLINKEKAGQSDPFLGMIMGLGGGMDFDSKKAYRDVAWLGECDQGCLALAELLGWKKALEDLVRREHASIDAQS

Series [1] has as its target SIRT2 catalytic domain (SIRT2^cat), amino acids 34–356 (human) (UniProt Q8IXJ6). The series is described as follows: cross-linking; Bis(NHS)-PEG5, 10 μM SIRT2^cat pre-equilibrated with SIRT2 inhibitors, 50 μL, 2% DMSO; SDS-PAGE, Coomassie bands quantified.
Series [2] shares this target. The series is described as follows: cross-linking; 1 mM Bis(NHS)-PEG5, 10 μM SIRT2 protein, room temperature 1 h, PBS with 1 mM DTT, with or without 12 μM acylated H4K16 peptide, ADP-ribose or the 286-313 peptide; SDS-PAGE, Coomassie bands quantified.
The target is the same in series [3]. The series is described as above. This is another data set of the same source.
For series [4] the target is unchanged. The series is described as follows: SEC; analytical SEC, Bio-Rad Enrich SEC 650 column, PBS with 1 mM DTT, 100 μL injected (SIRT2^cat 2-80 μM; full-length SIRT2 56 μM); Kd of dimer to monomers estimated from the peak concentrations at elution, averaged over all runs with two peaks.
Series [5] has as its target myristoyl-H4K16 peptide H4K16 peptide (Homo sapiens, UniProt P62805, myristoylated K16). The series can be described thus: gel shift assay. (Mobility shift assays separate free from complexed probe on a gel.)
Series [6] has as its target T1, full-length SIRT2 (amino acids 1–389) (human), Q8IXJ6.
T1 chain: B2 chain
The series is described as follows: cross-linking; 1 mM Bis(NHS)-PEG5, 10 μM SIRT2 protein, room temperature 1 h, PBS with 1 mM DTT, with or without 12 μM acylated H4K16 peptide, ADP-ribose or the 286-313 peptide; SDS-PAGE, Coomassie bands quantified. The conditions noted are these: remark: other sources report otherwise.

Series [7] concerns the target T1, full-length SIRT2 (amino acids 1–389) …. The series is described as follows: SEC; analytical SEC, Bio-Rad Enrich SEC 650 column, PBS with 1 mM DTT, 100 μL injected (SIRT2^cat 2-80 μM; full-length SIRT2 56 μM); Kd of dimer to monomers estimated from the peak concentrations at elution, averaged over all runs with two peaks. The following applies: remark: other sources report otherwise.

The target of series [8] is T2, SIRT2 catalytic domain (SIRT2^cat), amino acids 34–356 (human, UniProt Q8IXJ6-1 34-356).
T2 chain: B4 chain with A110Q, A308E

Series [9] deals with B4. The series can be described thus: cross-linking; 1 mM Bis(NHS)-PEG5, 10 μM SIRT2 protein, room temperature 1 h, PBS with 1 mM DTT, with or without 12 μM acylated H4K16 peptide, ADP-ribose or the 286-313 peptide; SDS-PAGE, Coomassie bands quantified. The following applies: both partners purified.
Series [10] concerns the molecule itself. The series can be described thus: cell-based or functional assay.

Changes are numbered by the printed parent chain. Numbers in names are those of the source. Where “and” joins values, the source holds several entries; their conditions need not be identical. Equal entries are not always repeated. Where two headings read alike, the source gives them in different places. Primed or numbered codes have the meaning given here. Where no end group is shown, it is not given here. The star is where a group is joined. Myristoyl = CCCCCCCCCCCCCC(=O)*; PEG4′ = PEG4 linker

Take “SIRT2 catalytic domain (SIRT2^cat), amino acids 34–356 (from UniProt Q8IXJ6-1 34-356) (domain or fragment)”: in [1], the percent of the protein cross-linked as dimer, no inhibitor was 49.9% and 50.6%; the percent of the protein cross-linked as dimer, with 20 μM ascorbyl palmitate was 32.1%; the percent of the protein cross-linked as dimer, with 200 μM ascorbyl palmitate is 31.8%. Moreover, the percent of the protein cross-linked as dimer in series [2] was determined as 47.4%. In [3], the percent of the protein cross-linked as dimer stood at 50.8%, the percent of the protein cross-linked as trimer was 6% and the percent of the protein migrating as monomer after cross-linking is 43.2%. Moreover, in series [4], the Kd is 0.121 µM and the stoichiometry N was 2.

For the molecule B1, in [5], the Kd is about 1.5 µM.

As to B2, the percent of the protein oligomeric after cross-linking in [6] stood at 50%. The stoichiometry N in [7] is 2.

As for B3, the Kd in series [8] was found to be 1 µM. Further, the binding result in series [9] is recorded as “binds”.

{FAM-PEG4′}-KGLGKGGAK(Myristoyl)RHRK-OH [FAM-myristoyl-H4K16 peptide] yielded a dissociation constant (Kd) in series [8] of 2 µM.

Consider B4, for which, in series [10], the “fold decrease in de-4-oxononanoylase catalytic efficiency (kcat/Km) of the mutant against wild-type SIRT2^cat” value came to 4 fold and the “fold decrease in deacetylase catalytic efficiency (kcat/Km, acetyl-H4K16 peptide, 1 mM NAD+) of the mutant against wild-type SIRT2^cat” value stood at 6 fold.

In general, Kd refers to the free concentration of one partner at which half of the binding sites on the other are occupied at equilibrium, for simple one-to-one binding. The term stoichiometry N denotes the number of molecules, sites or subunits per partner or assembly.
